In patent US20060292657A1, “Phex substrates and methods using same” (priority 2003, published 2006):

What was measured:
PHEX = biological target: T1, PHEX (Homo sapiens, UniProt P78562); settings: applicants previous observation (17); cited from earlier work
T1 sequence (P78562 1-749): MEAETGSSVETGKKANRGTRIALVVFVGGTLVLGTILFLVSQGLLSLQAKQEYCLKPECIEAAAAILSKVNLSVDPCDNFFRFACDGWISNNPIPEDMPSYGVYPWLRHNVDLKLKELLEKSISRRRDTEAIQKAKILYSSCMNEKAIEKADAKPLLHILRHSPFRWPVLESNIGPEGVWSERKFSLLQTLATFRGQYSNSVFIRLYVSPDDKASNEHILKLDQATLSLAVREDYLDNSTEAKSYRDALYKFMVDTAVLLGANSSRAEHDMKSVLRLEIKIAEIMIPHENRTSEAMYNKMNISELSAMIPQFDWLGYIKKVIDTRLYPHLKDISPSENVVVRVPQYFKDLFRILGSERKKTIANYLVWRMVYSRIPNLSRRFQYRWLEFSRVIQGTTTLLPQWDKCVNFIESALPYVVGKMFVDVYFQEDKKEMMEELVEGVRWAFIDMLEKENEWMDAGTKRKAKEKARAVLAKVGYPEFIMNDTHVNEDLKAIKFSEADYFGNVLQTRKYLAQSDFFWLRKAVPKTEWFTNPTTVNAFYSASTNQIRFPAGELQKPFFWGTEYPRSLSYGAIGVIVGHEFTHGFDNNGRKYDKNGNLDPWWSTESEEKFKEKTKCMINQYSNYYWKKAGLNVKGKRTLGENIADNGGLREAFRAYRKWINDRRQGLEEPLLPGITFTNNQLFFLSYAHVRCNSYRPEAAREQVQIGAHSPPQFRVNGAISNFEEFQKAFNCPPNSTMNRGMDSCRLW

secPHEX = biological target: T2, secPHEX (Homo sapiens, UniProt P78562); assay: secPHEX activity with NEP-specific substrate and inhibitor; assay type: biochemical; settings: thiorphan 10^−6 M, 10 μM substrate, 30 minutes
T2 construct: pure soluble form of PHEX (secPHEX); made in house
T2 sequence (P78562 46-749 limits assumed): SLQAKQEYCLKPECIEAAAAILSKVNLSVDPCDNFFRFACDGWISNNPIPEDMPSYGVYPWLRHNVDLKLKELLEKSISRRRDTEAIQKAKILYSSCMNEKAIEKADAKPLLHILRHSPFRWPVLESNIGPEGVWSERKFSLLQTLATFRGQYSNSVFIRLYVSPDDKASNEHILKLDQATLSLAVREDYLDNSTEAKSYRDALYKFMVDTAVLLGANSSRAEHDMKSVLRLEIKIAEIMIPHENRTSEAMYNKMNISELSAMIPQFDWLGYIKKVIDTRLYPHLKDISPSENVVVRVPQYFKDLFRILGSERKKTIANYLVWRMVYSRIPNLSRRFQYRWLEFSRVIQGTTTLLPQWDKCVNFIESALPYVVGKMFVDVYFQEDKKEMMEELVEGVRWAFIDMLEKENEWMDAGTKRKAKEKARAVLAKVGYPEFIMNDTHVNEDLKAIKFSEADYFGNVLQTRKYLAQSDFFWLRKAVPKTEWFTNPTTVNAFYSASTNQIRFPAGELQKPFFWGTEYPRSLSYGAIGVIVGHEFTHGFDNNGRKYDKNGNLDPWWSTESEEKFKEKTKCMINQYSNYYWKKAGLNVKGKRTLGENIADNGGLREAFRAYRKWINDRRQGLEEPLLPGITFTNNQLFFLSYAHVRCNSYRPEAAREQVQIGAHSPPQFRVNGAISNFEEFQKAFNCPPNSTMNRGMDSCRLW
Protocol: (§1) FIG. 4 graphically illustrates the activity of PHEX in the presence of NEP-specific substrate and inhibitor. NEP, secPHEX and membrane-bound PHEX (mPHEX) activities were measured after 30 minutes of incubation in presence of either 10 μM Abz-DRRL-EDDnp (SEQ ID NO:8) (A) or 10 μM Abz-GFSDYK(Dnp)-OH (SEQ ID NO:3) (B). Fluorescence detection (AFU) at γem=420 nm and γex=320 nm was determined as described under the heading “Experimental Procedures” below. When present, thiorphan, a NEP-specific inhibitor, was at a concentration of 10^−6 M. Data are a compilation of three different experiments;
(§2) The activities of membrane-bound PHEX and secPHEX were also compared with the NEP-specific substrate Abz-DRRL-EDDnp (SEQ ID NO:8) (46).

NEP = NEP activity with NEP-specific substrate and inhibitor; assay type: biochemical; settings: thiorphan 10^−6 M, 10 μM Abz-DRRL-EDDnp, 30 minutes
Protocol: as §1
The human recombinant secPHEX was obtained following the procedure previously described (17, WO 00/50580). Purified secPHEX concentration was determined using the Bradford method (DC protein assay kit; Bio-Rad, Mississauga, ON, Canada). Membrane-bound recombinant human PHEX was expressed in LLC-PK1 cells (17, (WO 00/50580)) and membranes were prepared essentially as described by Guo et al. (34). Briefly, transfected cells resuspended in lysis buffer (150 mM NaCl, 20 mM Tris.HCl, pH 7.6) were disrupted by sonication. […] Insoluble material was pelleted by centrifugation at 10,000 g for 15 min and protein concentrations of the supernatant determined using the Bradford method described above. PHEX amounts were evaluated by immunoblotting as described previously (17). […]

[1] = biological target: T3, membrane-bound PHEX (mPHEX) (Homo sapiens, UniProt P78562); assay: Membrane-bound PHEX activity with NEP-specific substrate and inhibitor; assay type: biochemical; settings: thiorphan 10^−6 M, 10 μM substrate, 30 minutes
T3 construct: expressed in transfected cells; host or cells: LLC-PK1 (porcine kidney cells)
Protocol: as §1, §2

Abz-GFSDYK(Dnp)-OH = biological target: T4, Abz-GFSDYK(Dnp)-OH
T4 chain: GFSDYK

Abz-DRRL-EDDnp = biological target: T5, Abz-DRRL-EDDnp
T5 chain: DRRL

[2] = substrate: Nc1ccccc1C(=O)NCC(=O)N[C@@H](Cc1ccccc1)C(=O)N[C@@H](CO)C(=O)N[C@@H](CC(=O)O)C(=O)N[C@@H](Cc1ccc(O)cc1)C(=O)N[C@@H](CCCCNc1ccc([N+](=O)[O-])cc1[N+](=O)[O-])C(=O)O; assay: Hydrolysis by membrane-bound PHEX from transfected LLC-PK1 cells; assay type: biochemical, human; settings: other: membrane-bound PHEX, 0.01 M Bis-Tris pH 5.5, 150 mM NaCl, 37° C.
Protocol: (§3) FIG. 3 graphically illustrates hydrolysis of Abz-GFSDYK(Dnp)-OH (SEQ ID NO:3) by secPHEX and membrane-bound PHEX. Abz-GFSDYK(Dnp)-OH (SEQ ID NO:3) at a concentration of 10 μM was incubated at 37° C., in 0.01 M Bis-Tris buffer, pH 5.5 with 150 mM NaCl, containing 2,1 μg total proteins from membranes extracted from LLC-PK1 transfected with vector alone (notes as “A” on the figure), or 2,1 μg total proteins from membranes extracted from LLC-PK1 transfected with the membrane-bound form of human PHEX (noted as “□” on the figure); or 2,1 μg total proteins from membranes extracted from LLC-PK1 transfected with vector alone to which 500 ng purified secPHEX were added (noted as “o” on the figure). Fluorescence was monitored every 4 min for a period of 28 min. Amounts of secPHEX or membrane-bound PHEX (mPHEX) in the enzymatic reactions were evaluated by immunoblotting (Inset). Mock: cells transfected with vector alone;
(§4) The human recombinant secPHEX was obtained following the procedure previously described (17, WO 00/50580). Purified secPHEX concentration was determined using the Bradford method (DC protein assay kit; Bio-Rad, Mississauga, ON, Canada). […] Insoluble material was pelleted by centrifugation at 10,000 g for 15 min and protein concentrations of the supernatant determined using the Bradford method described above. PHEX amounts were evaluated by immunoblotting as described previously (17). […]

[3] = substrate: Nc1ccccc1C(=O)NCC(=O)N[C@@H](Cc1ccccc1)C(=O)N[C@@H](CO)C(=O)N[C@@H](CC(=O)O)C(=O)N[C@@H](Cc1ccc(O)cc1)C(=O)N[C@@H](CCCCNc1ccc([N+](=O)[O-])cc1[N+](=O)[O-])C(=O)O; assay: Hydrolysis by secPHEX added to membranes of vector-transfected LLC-PK1 cells; assay type: biochemical, human; settings: other: secPHEX added to membranes from cells transfected with vector alone, 0.01 M Bis-Tris pH 5.5, 150 mM NaCl, 37° C.
Protocol: as §3, §4

substance P
cleavage by PHEX (PHEX): could not cleave

O=C(O)CNC(=O)C(CS)Cc1ccccc1 (stereo not drawn) [thiorphan]
inhibition of cleavage of Abz-GFSDYK(Dnp)-OH (secPHEX): did not prevent cleavage
inhibition of NEP activity (NEP): completely inhibited
inhibition of cleavage of Abz-GFSDYK(Dnp)-OH [1]: did not prevent cleavage

B1: membrane-bound form of human PHEX (Homo sapiens) (protein)
chain: T1 sequence (P78562 1-749)
notes: expressed in transfected cells; host or cells: LLC-PK1 (porcine kidney cells)
Km (Abz-GFSDYK(Dnp)-OH): 5×10^-6 M and 10×10^-6 M, for secPHEX and membrane-bound PHEX, respectively
substrate hydrolysis (fluorescence) (Abz-GFSDYK(Dnp)-OH): degradation of the substrate was observed
substrate hydrolysis (fluorescence) (Abz-DRRL-EDDnp): Neither enzyme hydrolyzed this substrate
Km [2]: 10 µM

B2: secPHEX (Homo sapiens) (protein)
chain: T2 sequence (P78562 46-749 limits assumed)
notes: pure soluble form of PHEX (secPHEX); made in house
Km [3]: 5 µM
